# Measured values: the FLAb antibody collection (doi:10.1101/2023.12.08.570889)
# Biological target: TSLP, Q969D9
# Assay: Kd (SPR)
row,Binder,Kd [nM]
1,unnamed (protein) chain 1: QMQLVESGGGVVQPGRSLRLSCAASGFTFSTYAMHWVRQAPGKGLEWVAVIWYDGSNKHYADSVKGRFTITRDNSKNTLNLQMNSLRAEDTAVYYCARAPRYDYYYEAFDVWGQGTMVTVSS chain 2: SYVLTQPPSVSVAPGQTARITCGGNNLGSKSVHWYQQKPGQAPVLVVYDDSDRPSWIPERFSGSNSGNTATLTISRGEAGDEADYYCQVWDSSSDHVVFGGGTKLTVL,315
2,unnamed (protein) chain 1: QMQLVESGGGVVQPGRSLRLSCAASGFTFSTFAMHWVRQAPGKGLEWVAVIWYDGSNKHYADSVKGRFTITRDNSKNTLNLQMNSLRAEDTAVYYCARSPRYDYYYEAFDVWGQGTMVTVSS chain 2: SYVLTQPPSVSVAPGQTARITCGGNNLGSKSVHWYQQKPGQAPVLVVYDDSDRPSWIPERFSGSNSGNTATLTISRGEAGDEADYYCQVWDSSSDHVVFGGGTKLTVL,372
3,unnamed (protein) chain 1: QMQLVESGGGVVQPGRSLRLSCAASGFTFSTFAMHWVRQAPGKGLEWVAVIWYDGSNKHYADSVKGRFTITRDNSKNTLNLQMNSLRAEDTAVYYCARSPRYDDYWEAFDVWGQGTMVTVSS chain 2: SYVLTQPPSVSVAPGQTARITCGGNNLGSKSVHWYQQKPGQAPVLVVYDDSDRPSWIPERFSGSNSGNTATLTISRGEAGDEADYYCQVWDSSSDHVVFGGGTKLTVL,320
4,unnamed (protein) chain 1: QMQLVESGGGVVQPGRSLRLSCAASGFTFSTFAMHWVRQAPGKGLEWVAVIWYDGSNKHYADSVKGRFTITRDNSKNTLNLQMNSLRAEDTAVYYCARAPRYDEAYEAFDVWGQGTMVTVSS chain 2: SYVLTQPPSVSVAPGQTARITCGGNNLGSKSVHWYQQKPGQAPVLVVYDDSDRPSWIPERFSGSNSGNTATLTISRGEAGDEADYYCQVWDSSSDHVVFGGGTKLTVL,502
5,unnamed (protein) chain 1: QMQLVESGGGVVQPGRSLRLSCAASGFTFSTYAMHWVRQAPGKGLEWVAVIWYDGSNKHYADSVKGRFTITRDNSKNTLNLQMNSLRAEDTAVYYCARAPRYYEYYEAFDVWGQGTMVTVSS chain 2: SYVLTQPPSVSVAPGQTARITCGGNNLGSKSVHWYQQKPGQAPVLVVYDDSDRPSWIPERFSGSNSGNTATLTISRGEAGDEADYYCQVWDSSSDHVVFGGGTKLTVL,105
6,unnamed (protein) chain 1: QMQLVESGGGVVQPGRSLRLSCAASGFTFSTFAMHWVRQAPGKGLEWVAVIWYDGSNKHYADSVKGRFTITRDNSKNTLNLQMNSLRAEDTAVYYCARSPRYDEYYEAFDVWGQGTMVTVSS chain 2: SYVLTQPPSVSVAPGQTARITCGGNNLGSKSVHWYQQKPGQAPVLVVYDDSDRPSWIPERFSGSNSGNTATLTISRGEAGDEADYYCQVWDSSSDHVVFGGGTKLTVL,103
7,unnamed (protein) chain 1: QMQLVESGGGVVQPGRSLRLSCAASGFTFSTYAMHWVRQAPGKGLEWVAVIWYDGSNKHYADSVKGRFTITRDNSKNTLNLQMNSLRAEDTAVYYCARAPRYYDYWEAFDVWGQGTMVTVSS chain 2: SYVLTQPPSVSVAPGQTARITCGGNNLGSKSVHWYQQKPGQAPVLVVYDDSDRPSWIPERFSGSNSGNTATLTISRGEAGDEADYYCQVWDSSSDHVVFGGGTKLTVL,285
8,unnamed (protein) chain 1: QMQLVESGGGVVQPGRSLRLSCAASGFTFSTFAMHWVRQAPGKGLEWVAVIWYDGSNKHYADSVKGRFTITRDNSKNTLNLQMNSLRAEDTAVYYCARAPRYDYYLEAFDVWGQGTMVTVSS chain 2: SYVLTQPPSVSVAPGQTARITCGGNNLGSKSVHWYQQKPGQAPVLVVYDDSDRPSWIPERFSGSNSGNTATLTISRGEAGDEADYYCQVWDSSSDHVVFGGGTKLTVL,519
9,unnamed (protein) chain 1: QMQLVESGGGVVQPGRSLRLSCAASGFTFSTFAMHWVRQAPGKGLEWVAVIWYDGGNKHYADSVKGRFTITRDNSKNTLNLQMNSLRAEDTAVYYCARAPRYDEYYEAFDVWGQGTMVTVSS chain 2: SYVLTQPPSVSVAPGQTARITCGGNNLGSKSVHWYQQKPGQAPVLVVYDDSDRPSWIPERFSGSNSGNTATLTISRGEAGDEADYYCQVWDSSSDHVVFGGGTKLTVL,217

# Continued, values first:
row,Kd [nM],Binder
1,353,unnamed (protein) chain 1: QMQLVESGGGVVQPGRSLRLSCAASGFTFSTFAMHWVRQAPGKGLEWVAVIWYDGSNKHYADSVKGRFTITRDNSKNTLNLQMNSLRAEDTAVYYCARAPRYYWYWEAFDVWGQGTMVTVSS chain 2: SYVLTQPPSVSVAPGQTARITCGGNNLGSKSVHWYQQKPGQAPVLVVYDDSDRPSWIPERFSGSNSGNTATLTISRGEAGDEADYYCQVWDSSSDHVVFGGGTKLTVL
2,524,unnamed (protein) chain 1: QMQLVESGGGVVQPGRSLRLSCAASGFTFSTYAMHWVRQAPGKGLEWVAVIWYDGSNKHYADSVKGRFTITRDNSKNTLNLQMNSLRAEDTAVYYCARSPRYDYYYEAFDVWGQGTMVTVSS chain 2: SYVLTQPPSVSVAPGQTARITCGGNNLGSKSVHWYQQKPGQAPVLVVYDDSDRPSWIPERFSGSNSGNTATLTISRGEAGDEADYYCQVWDSSSDHVVFGGGTKLTVL
3,349,unnamed (protein) chain 1: QMQLVESGGGVVQPGRSLRLSCAASGFTFSTFAMHWVRQAPGKGLEWVAVIWYDGSNKHYADSVKGRFTITRDNSKNTLNLQMNSLRAEDTAVYYCARAPRYDWDYEAFDVWGQGTMVTVSS chain 2: SYVLTQPPSVSVAPGQTARITCGGNNLGSKSVHWYQQKPGQAPVLVVYDDSDRPSWIPERFSGSNSGNTATLTISRGEAGDEADYYCQVWDSSSDHVVFGGGTKLTVL
4,305,unnamed (protein) chain 1: QMQLVESGGGVVQPGRSLRLSCAASGFTFSTFAMHWVRQAPGKGLEWVAVIWYDGSNKHYADSVKGRFTITRDNSKNTLNLQMNSLRAEDTAVYYCARAPRYDEYLEAFDVWGQGTMVTVSS chain 2: SYVLTQPPSVSVAPGQTARITCGGNNLGSKSVHWYQQKPGQAPVLVVYDDSDRPSWIPERFSGSNSGNTATLTISRGEAGDEADYYCQVWDSSSDHVVFGGGTKLTVL
